According to patent publication US10260068B2, “Prophylactic agent and therapeutic agent for fibrodysplasia ossificans progressiva” (Sumitomo Dainippon Pharma Co., Ltd., priority 2014, dated 2019):

T1: FOP patient-derived ACVR1 (Homo sapiens, UniProt Q04771, R206H)
T1 construct: The patient cells were confirmed to be cells having a typical FOP-associated mutation in the ACVR1 gene; endogenous in cells; host or cells: mesenchymal stem cell-like cells differentiated from an FOP patient-derived iPS cell line
T1 sequence (Q04771 21-509 R206H): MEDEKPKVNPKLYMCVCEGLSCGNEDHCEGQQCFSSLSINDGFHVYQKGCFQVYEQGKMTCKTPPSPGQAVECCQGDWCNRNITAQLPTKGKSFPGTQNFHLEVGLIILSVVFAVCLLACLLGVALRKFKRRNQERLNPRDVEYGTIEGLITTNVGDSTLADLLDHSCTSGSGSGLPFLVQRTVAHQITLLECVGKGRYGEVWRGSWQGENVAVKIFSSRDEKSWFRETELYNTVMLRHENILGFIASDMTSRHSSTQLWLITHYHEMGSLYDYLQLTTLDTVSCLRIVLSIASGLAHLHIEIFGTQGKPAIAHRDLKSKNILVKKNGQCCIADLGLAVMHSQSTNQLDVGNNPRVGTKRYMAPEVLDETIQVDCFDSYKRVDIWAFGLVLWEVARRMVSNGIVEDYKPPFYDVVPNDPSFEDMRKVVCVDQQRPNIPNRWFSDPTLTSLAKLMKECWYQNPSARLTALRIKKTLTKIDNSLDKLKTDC


Legend:
[1] = target: T1, FOP patient-derived ACVR1; experiment: Luciferase reporter (BMP responsive sequence) transcription activity via ACVR1 in FOP patient derived cells; type: cell-based; details: ligand 1, 10, 100 ng/mL, 16 hours, significant at 10 and 100 ng/mL vs untreated group
Description: Following the method of Yamanaka et al. (Cell, 2007, 131 (5), […]), FOP patient-derived iPS cells (hereunder also referred to as “patient-derived iPS cell line”) were established. The patient cells were confirmed to be cells having a typical FOP-associated mutation in the ACVR1 gene. The mutation is a substitution of the 206th arginine residue of the amino acid sequence of ACVR1 (the amino acid sequence listed as SEQ ID NO: 10) with a histidine residue. Next, for use as a control, an iPS cell line with the ACVR1 gene mutation repaired to the normal type (wild type) by gene repair by a BAC knockin vector (hereunder also referred to as “gene-corrected iPS cell clone” or “gene-rescued iPS cell clone”) was established.
The patient-derived iPS cell line and gene-corrected iPS cell line were cultured on the matrix of a Matrigel coated plate (trade name: Growth Factor Reduced (GFR)BD Matrigel® by Becton & Dickinson), using mTeSR1 (Stem Cell Technologies) for 2 days under feeder-free conditions. Next, using serum-free medium [F12 Nutrient Mixture (product of Gibco)/Iscove's Modified Dulbecco's Medium (IMDM) (product of Sigma-Aldrich Japan, KK.)/0.5% bovine serum albumin (BSA) (product of Sigma-Aldrich Japan, KK.)/1% Chemically Defined Lipid (CD-Lipid) (product of Gibco, trade name: Chemically Defined Lipid Concentrate)/15 μg/mL apotransferrin (product of Sigma-Aldrich Japan, KK., trade name: apo-Transferrin human)/7 μg/mL insulin (product of Wako Pure Chemical Industries, Ltd., trade name: Insulin, Human, recombinant)/0.45 mM 1-Thioglycerol (product of Sigma-Aldrich Japan, KK.)] with addition of 10 μM SB-431542 (product of Selleck Chemicals) and 1 μM CHIR99021 (product of Wako Pure Chemical Industries, Ltd.), the patient-derived iPS cell line and gene-corrected iPS cell line were further cultured for 1 week under feeder-free conditions for differentiation to neural crest cells. […]
After mixing Firefly luciferase reporter plasmid having the BMP responsive sequence in the promoter region (J. Biol. Chem., 2002, 277(7), 4883-4891) and a plasmid having a nucleic acid sequence coding for Renilla luciferase downstream from CMV promoter, as an internal standard (product of Promega Corp., trade name: phRL-CMV Vector), FuGene® HD (Promega Corp.) was used for transfection into the mesenchymal stem cell-like cells. […] Next, the luciferase activity was measured according to the protocol provided with a Dual-Glo Luciferase Assay System (product of Promega Corp.). The luminescence was detected using an EnVision Multilabel Counter (product of Perkin-Elmer). […]

SMAD1/5/8 = SMAD1/5/8 phosphorylation by Western blotting in FOP patient derived cells; type: cell-based, human; details: for amount of total SMAD1/5/8: Western blotting, 60 minutes treatment, FOP patient derived and gene-corrected clone derived cells
Protocol: Mesenchymal stem cell-like cells from a patient iPS cell line and a gene-corrected iPS cell clone were each prepared by the same method as Example 1. Culturing was conducted for 60 minutes with addition of 10 ng/mL and 100 ng/mL of human activin A or 100 ng/mL of human BMP-7 to the mesenchymal stem cell-like cells. The cells were then solubilized with 300 μL of a dissolving solution (70 mM Tris-HCl buffer solution, pH 6.8, 11.2% glycerol, 3% sodium dodecyl sulfate), and a cell extract was prepared. The amount of phosphorylated SMAD1/5/8 and the amount of total SMAD1/5/8 in the obtained cell extract were quantified by Western blotting. As the primary antibody for phosphorylated SMAD1/5/8 there was used rabbit anti-phosphorylated SMAD1/5/8 antibody [product of Cell Signaling Tech., trade name: Phospho-Smad1 (Ser463/465)/Smad5 (Ser463/465)/Smad8 (Ser426/428) Antibody (Rabbit)], and as the primary antibody for total SMAD1/5/8 there was used rabbit anti-total SMAD1/5/8 antibody [product of Santa Cruz Biotechnology, trade name: Smad1/5/8 Antibody (N-18)-R (Rabbit)]. The secondary antibody used was horseradish peroxidase conjugated anti-rabbit antibody (product of Cell Signaling Tech., trade name: Anti-rabbit IgG, HRP-linked Antibody). The substrate used for chemiluminescence was ECL Prime (product of GE Healthcare), and ChemiDocXRSPlus (product of Bio-Rad Laboratories, Inc.) was used for the detection.

Molecule	transcription activity via ACVR1 (firefly/Renilla luciferase activity, BMP responsive sequence) [1]	phosphorylation of SMAD1/5/8 (SMAD1/5/8; FOP patient derived cells, 10 and 100 ng/mL activin A, 60 minutes)	amount of total SMAD1/5/8 (SMAD1/5/8)
human activin A: Recombinant Human/Mouse/Rat Activin A (R&D Systems); homodimer of inhibin βA chains	significantly increased	induced	No significant change
BMP-7: Recombinant Human BMP-7 (R&D Systems); cytokine of the BMP family (protein) STGSKQRSQNRSKTPKNQEALRMANVAENSSSDQRQACKKHELYVSFRDLGWQDWIIAPEGYAAYYCEGECAFPLNSYMNATNHAIVQTLVHFINPETVPKPCCAPTQLNAISVLYFDDSSNVILKKYRNMVVRACGCH	increased in a concentration-dependent manner	–	No significant change
